# Measurements from patent publication US20150148405A1, “Expression Construct for a Lin28-Resistant Let-7 Precursor MicroRNA” (THE JOHNS HOPKINS UNIVERSITY, priority 2012, published 2015).
# B1: BDNF: brain-derived neurotrophic factor, a neurotrophin used to stimulate hippocampal neurons (protein, UniProt P23560 19-247, looked up)
# Neurotrophic factor BDNF …: APMKEANIRGQGGLAYPGVRTHGTLESVNGPKAGSRGLTSLADTFEHVIEELLDEDQKVRPNEENNKDADLYTSRVMLSSQVPLEPPLLFLLEEYKNYLDAANMSMRVRRHSDPARRGELSVCDSISEWVTAADKKTAVDMSGGTVTVLEKVPVSKGQLKQYFYETKCNPMGYTKEGCRGIDKRHWNSQCRTTQSYVRALTMDSKKRIGWRFIRIDTSCVCTLTIKRGR
# Key:
# Assay type in all cases: cell-based, mouse
# [1] = test system: hippocampal pyramidal neurons; test: Live cell imaging of P-body numbers (GFP-Dcp1a); conditions: BDNF-stimulated vs mock, GFP-Dcp1a live imaging, in presence of Actinomycin-D
# Method: Dissociated hippocampal cultures were prepared from postnatal day 0 (P0) mice as previously described (Meffert et al., 2003). Knockdown was by lentiviral-mediated delivery of shRNA to cultures at multiplicity of infection of 5-10, 48 hr before imaging or 4-5 days for GW182. Cultures were preincubated 10-20 min and mock- or BDNF-stimulated (100 ng/mL BDNF) in the presence of Actinomycin-D (0.5 μg/mL), unless indicated otherwise.
# Confocal images of hippocampal pyramidal neurons were acquired on either a Yokogawa spinning disk (Zeiss) at 37° C. (live cells), or a LSM5 Pascal system (fixed cells). Laser power and exposure time were adjusted to minimize photobleaching and avoid saturation. […]
# Dissociated hippocampal cultures were prepared from postnatal day 0 (P0) mice as previously described (Meffert et al., 2003) and were maintained in Neurobasal A medium (Gibco, 10888) with B27 Supplement (Gibco 17504-44). […] For live cell imaging, confocal images of hippocampal pyramidal neurons (excitatory, determined by morphology) in 0.24-0.3 μm Z sections were acquired using a 40×, 1.3 NA, EC Plan Neofluoar (whole cells) or a 100×, 1.4 NA Plan Apochromat oil immersion objective (dendrites) on a Yokogawa spinning disk system (Cell Observer, Carl Zeiss) at 37° C. in Tyrodes buffer (in mM: 119 NaCl, 5 KCl, 2 CaCl2, 0.2 MgCl2, Glucose, 25 Hepes, 0.01 Glycine, pH 7.4). […]
# Let-7a = test: Northern blot of pre- and mature Let-7a; conditions: BDNF-treated (30 min) neurons
# Method: Northern blots were carried out as described (Hwang et al., 2007), using the following LNA probes from Exiqon: Let-7a (5′ […] 3′; SEQ ID NO: 1), pre-Let-7a (5′ GTGGGTGTGACCCTA 3′; SEQ ID NO: 2), miR-17 (5′ […] 3′; SEQ ID NO: 3) and quantified by phosphoimaging.
# GW182 = test: Immunopurification of GW182: associated RNA, mRNAs and proteins
# Method: Proteins and mRNAs associated with P-body component GW182 were isolated through immunoprecipitation of GW182 by modification of previously published protocols (Keene et al., 2006; Moser et al., 2009). Primary cultures of mouse hippocampal neurons (DIV 14-15) were incubated in serum-reduced medium (0.5% B27 supplement) for 2 hours, followed by […] Actinomycin-D for […] and mock or BDNF-stimulation for 30˜60 min. Cell lysates were harvested in polysomal lysis buffer (100 mM KCl, 5 mM MgCl2, 10 mM HEPES pH 7.0, 0.5% NP-40) with protease inhibitor cocktail and freshly added 20 mM EDTA, 1 mM DTT, 100 U/mL RNase inhibitor (RNaseOut, Invitrogen) and 400 μM Vanadyl ribonucleoside complexes (SIGMA). Lysates were centrifuged and the supernatants pre-cleared by one-hour incubation with recombinant protein G beads pre-washed in NT2 buffer (50 mM Tris-HCl pH 7.4, 150 mM NaCl, 1 mM MgCl2, 0.05% NP-40). Antibody coating of protein G beads was carried out with antiserum against GW182 (18033, gift of M. Fritzler) or control isotype-specific serum in NT2 buffer plus protease inhibitor for 4 hours after blocking with NT2 buffer plus 5% BSA and 1 mg/mL heparin for 1 hour. For immunoprecipitation (IP), equal amounts of lysate protein (2-5 mg) was incubated with antibody-coated beads and tumbled for 4 hours at 4° C., followed by washing. RNAs were recovered from GW182 immunoprecipitates by Tri-Reagent as described below. Recovered RNAs were resuspended in nuclease-free water, measured for RNA concentration, and immediately reverse transcribed into cDNA using a combination of random decamers and oligo(dT) primers. RT-qPCR was carried out as described below. To examine proteins co-immunoprecipitated with GW182, the washed IP beads were incubated in sample buffer at 95° C. for 5 minutes and subjected to SDS-PAGE electrophoresis and immunoblotting.
molecule,measurement,setting,value
B1,number of dendritic and somatic P-bodies,[1],rapid and robust increase in the number of both dendritic and somatic P-bodies
same,pre-Let7 and mature Let-7 miRNA levels,Let-7a,significant decreases
same,association of P-body components Ago2 and Dcp1a with GW182,"GW182; co-immunoprecipitation, BDNF 1 hour",increased the association
same,"GW182-association of mRNAs whose translation is downregulated by BDNF (KCC2, Kv1.1)",GW182; control shRNA conditions,promoted the GW182-association
same,"GW182-association of mRNAs whose translation is upregulated by BDNF (GluR1, CaMKIIu, Homer2)",GW182; control shRNA conditions,reduced the GW182-association
